Assay [1] addresses T1, Myc-tagged CARD-14 (full-length CARD-14 with C-terminal Myc epitopes, pCMV-Tag 5A) (human, UniProt Q9BXL6 1-1004).
T1 construct: Expressed in 293T cells (co-immunoprecipitation, Bcl-10 phosphorylation) and Rat-1 cells (co-localization)
T1 sequence: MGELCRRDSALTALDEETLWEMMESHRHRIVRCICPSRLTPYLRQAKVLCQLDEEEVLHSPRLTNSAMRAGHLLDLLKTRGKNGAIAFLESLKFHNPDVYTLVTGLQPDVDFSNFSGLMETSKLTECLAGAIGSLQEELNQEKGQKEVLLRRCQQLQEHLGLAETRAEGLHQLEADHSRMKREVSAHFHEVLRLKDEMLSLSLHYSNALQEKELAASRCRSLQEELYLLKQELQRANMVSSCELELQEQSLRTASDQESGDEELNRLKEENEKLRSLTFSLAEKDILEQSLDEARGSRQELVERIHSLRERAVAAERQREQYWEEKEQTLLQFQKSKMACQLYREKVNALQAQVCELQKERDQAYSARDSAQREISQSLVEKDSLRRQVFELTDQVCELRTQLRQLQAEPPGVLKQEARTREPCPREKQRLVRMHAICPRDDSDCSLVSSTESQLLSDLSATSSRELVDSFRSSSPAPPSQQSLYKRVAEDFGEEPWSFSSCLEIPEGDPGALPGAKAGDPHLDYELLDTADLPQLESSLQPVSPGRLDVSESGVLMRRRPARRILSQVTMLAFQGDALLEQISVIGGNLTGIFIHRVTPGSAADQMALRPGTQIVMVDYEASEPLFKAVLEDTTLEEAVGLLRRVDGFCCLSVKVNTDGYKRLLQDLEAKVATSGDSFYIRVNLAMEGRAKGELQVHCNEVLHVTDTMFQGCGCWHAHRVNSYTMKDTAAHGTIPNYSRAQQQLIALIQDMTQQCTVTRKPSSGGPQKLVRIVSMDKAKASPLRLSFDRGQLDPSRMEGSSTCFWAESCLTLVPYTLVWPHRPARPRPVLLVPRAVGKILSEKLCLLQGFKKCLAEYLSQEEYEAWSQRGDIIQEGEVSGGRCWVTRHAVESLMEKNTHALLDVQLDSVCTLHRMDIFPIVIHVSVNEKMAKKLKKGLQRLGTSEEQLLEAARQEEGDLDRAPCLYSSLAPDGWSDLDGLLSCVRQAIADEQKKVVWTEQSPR
Description: co-localization by immunofluorescence in Rat-1 cells. Here is the method:
To further confirm the interaction between CARD-14 and Bcl-10, co-localization experiments were performed with full-length CARD-14. In these studies, Rat-1 cells were transfected in PDL-coated glass chamber slides (BioCoat, Becton-Dickinson Labware) with plasmids expressing HA-tagged Bcl10 and Myc-tagged CARD-14 using FuGENE-6 (Roche Molecular Biochemicals) for 20 hours. Cells were fixed in 4% paraformaldehyde, permeabilized and blocked in buffer containing 0.4% Triton X-100, and sequentially incubated with primary and secondary antibodies: rabbit anti-HA polyclonal Y-11 (Santa Cruz Biotechnology), mouse anti-Myc monoclonal 9E10 (Oncogene Research Products), Alexa-488 Goat anti-mouse IgG (Molecular Probes) and Alexa-594 Goat anti-rabbit IgG (Molecular Probes). No cross-reactivity was observed between any of the antibodies. Images were acquired using a Nikon T200 microscope with a 60× oil objective and an Orca100 digital camera (Hammamatsu, Inc.) driven by MetaMorph software (Universal Imaging Corp.). Final images were prepared using Adobe PhotoShop.

For assay [2], the target named is T2, CARD-14 protein labeled with 35S-methionine (human, UniProt Q9BXL6 1-1004, limits assumed, labeled with 35S-methionine).
T2 construct: also called radiolabeled CARD-14
T2 sequence: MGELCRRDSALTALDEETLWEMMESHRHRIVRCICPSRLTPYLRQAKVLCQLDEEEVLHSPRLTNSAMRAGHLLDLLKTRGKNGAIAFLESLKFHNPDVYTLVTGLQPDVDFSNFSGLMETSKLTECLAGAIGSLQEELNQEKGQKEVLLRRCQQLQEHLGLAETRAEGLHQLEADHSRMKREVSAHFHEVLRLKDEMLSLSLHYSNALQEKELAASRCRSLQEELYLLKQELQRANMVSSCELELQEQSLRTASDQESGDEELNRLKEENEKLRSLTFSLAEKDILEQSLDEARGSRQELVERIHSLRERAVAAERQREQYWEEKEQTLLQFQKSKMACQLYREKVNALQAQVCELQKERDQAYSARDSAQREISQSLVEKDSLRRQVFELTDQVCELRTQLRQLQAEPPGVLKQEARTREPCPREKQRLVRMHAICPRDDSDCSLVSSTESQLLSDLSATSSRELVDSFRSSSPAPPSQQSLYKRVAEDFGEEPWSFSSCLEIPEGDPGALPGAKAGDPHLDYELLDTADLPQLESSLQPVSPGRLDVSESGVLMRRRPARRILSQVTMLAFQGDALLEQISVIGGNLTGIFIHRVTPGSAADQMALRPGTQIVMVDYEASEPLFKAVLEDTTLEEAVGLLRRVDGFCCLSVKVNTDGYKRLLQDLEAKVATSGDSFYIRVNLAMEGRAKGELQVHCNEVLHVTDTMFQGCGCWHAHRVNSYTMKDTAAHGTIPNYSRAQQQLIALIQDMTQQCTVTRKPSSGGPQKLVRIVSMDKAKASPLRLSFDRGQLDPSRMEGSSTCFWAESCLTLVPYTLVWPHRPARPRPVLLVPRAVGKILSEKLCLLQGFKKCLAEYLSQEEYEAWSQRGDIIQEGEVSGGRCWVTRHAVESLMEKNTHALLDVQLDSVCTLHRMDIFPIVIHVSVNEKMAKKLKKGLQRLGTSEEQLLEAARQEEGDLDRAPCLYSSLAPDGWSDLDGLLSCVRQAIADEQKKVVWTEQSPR
Description: GST pull-down on glutathione-sepharose, autoradiography. Here is the method: The interaction of radiolabeled CARD-14 with GST-Bcl-10 in vitro was also examined. Bcl-10 wild type and L41R mutant were expressed in DH5 alpha bacteria as GST fusion proteins and equal amounts of protein were immobilized on glutathione-sepharose (Amersham-Pharmacia). An equal amount of CARD-14 protein, labeled with ^35S-methionine, was incubated with the protein bound sepharose beads in 100 μl of binding buffer (50 mM Tris-Cl pH 7.6, 120 mM NaCl, 0.5% Brij and protease inhibitors) for three hours. The beads were washed four times with the same buffer and boiled in SDS sample buffer. The proteins were then resolved on a 10% SDS gel and visualized by autoradiography.

B1: HA-tagged Bcl10 (other, UniProt O95999 1-233, looked up, not shown: small tags and cut ends)
chain: MEPTAPSLTEEDLTEVKKDALENLRVYLCEKIIAERHFDHLRAKKILSREDTEEISCRTSSRKRAGKLLDYLQENPKGLDTLVESIRREKTQNFLIQKITDEVLKLRNIKLEHLKGLKCSSCEPFPDGATNNLSRSNSDESNFSEKLRASTVMYHPEGESSTTPFFSTNSSLNLPVLEVGRTENTIFSSTTLPRPGDPGAPPLPPDLQLEEEGTCANSSEMFLPLRSRTVSRQ
notes: Expressed in Rat-1 cells (co-localization) and 293T cells (phosphorylation); also called HA-Bcl-10
In the case of B1, in assay [1], the binding result is reported as “binds”.

B2: GST-Bcl-10 L41R mutant (other, UniProt O95999 1-233, looked up)
chain: MEPTAPSLTEEDLTEVKKDALENLRVYLCEKIIAERHFDHRRAKKILSREDTEEISCRTSSRKRAGKLLDYLQENPKGLDTLVESIRREKTQNFLIQKITDEVLKLRNIKLEHLKGLKCSSCEPFPDGATNNLSRSNSDESNFSEKLRASTVMYHPEGESSTTPFFSTNSSLNLPVLEVGRTENTIFSSTTLPRPGDPGAPPLPPDLQLEEEGTCANSSEMFLPLRSRTVSRQ
notes: Expressed in DH5 alpha bacteria and immobilized on glutathione-sepharose; also called variant of Bcl-10 with a point mutation (L41R); not shown: GST fusion partner
Regarding B2, the binding result in assay [2] was “no binding”.

(Values after US6936690 (Takeda / Millennium, dated 2005).)
